Source: PMC4445638 (2015)

Molecular target: T1, DLL4 N-EGF2 (Rattus norvegicus, UniProt D3ZHH1)
T1 chain: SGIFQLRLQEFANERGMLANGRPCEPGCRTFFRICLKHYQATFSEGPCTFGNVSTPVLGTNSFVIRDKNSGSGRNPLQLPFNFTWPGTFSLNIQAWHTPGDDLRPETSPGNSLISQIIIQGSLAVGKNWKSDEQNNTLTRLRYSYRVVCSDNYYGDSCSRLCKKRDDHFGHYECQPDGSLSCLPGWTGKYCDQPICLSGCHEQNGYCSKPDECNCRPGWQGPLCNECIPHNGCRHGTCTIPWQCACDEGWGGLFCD
Assay: SPR

How did the Kd turn out when CLTLL [Notch1 EGF10-14] was run?
The Kd was 8.6 µM.

B1: Notch1 411-530 (protein)
chain: QDVDECALGANPCEHAGKCLNTLGSFECQCLQGYTGPRCEIDVNECISNPCQNDATCLDQIGEFQCICMPGYEGVYCEINTDECASSPCLHNGRCVDKINEFLCQCPKGFSGHLCQYDVD
With B1 as the binder, how does the Kd read?
Its Kd is 7.5 µM.

Which Kd does the source give for MPRLLAPLLCLTLL [Notch1 EGF1-14] here?
The Kd was 12.7 µM.
